Article PMC12362098, “Dimerization of Cdc13 is essential for dynamic DNA exchange on telomeric DNA” (The Journal of Biological Chemistry, 2025)

Experiments:
[1] = biological target: the molecule itself; experiment: mass photometry; Cdc13 alone diluted in PBS, 11.25 nM protein, room temperature
Cdc13-L91R [2] = biological target: T1, Cdc13-L91R (Saccharomyces cerevisiae, UniProt P32797 1-924, L91R); experiment: competition EMSA (DDE assay); EC50 for displacing 2 nM prebound IR800-Tel30G; 3.75 nM monomer; 30 C; 25 mM HEPES pH 8.0, 50 mM NaOAc, 150 mM NaCl, 7.5 mM MgCl2 (1x DNA-binding buffer); DDE incubation 30 C, 8% native gel; mass photometry at room temperature after 30 C incubation; BLI buffer details not in material; conditions: protein: recombinant; label: 5' IRDye700
T1 sequence: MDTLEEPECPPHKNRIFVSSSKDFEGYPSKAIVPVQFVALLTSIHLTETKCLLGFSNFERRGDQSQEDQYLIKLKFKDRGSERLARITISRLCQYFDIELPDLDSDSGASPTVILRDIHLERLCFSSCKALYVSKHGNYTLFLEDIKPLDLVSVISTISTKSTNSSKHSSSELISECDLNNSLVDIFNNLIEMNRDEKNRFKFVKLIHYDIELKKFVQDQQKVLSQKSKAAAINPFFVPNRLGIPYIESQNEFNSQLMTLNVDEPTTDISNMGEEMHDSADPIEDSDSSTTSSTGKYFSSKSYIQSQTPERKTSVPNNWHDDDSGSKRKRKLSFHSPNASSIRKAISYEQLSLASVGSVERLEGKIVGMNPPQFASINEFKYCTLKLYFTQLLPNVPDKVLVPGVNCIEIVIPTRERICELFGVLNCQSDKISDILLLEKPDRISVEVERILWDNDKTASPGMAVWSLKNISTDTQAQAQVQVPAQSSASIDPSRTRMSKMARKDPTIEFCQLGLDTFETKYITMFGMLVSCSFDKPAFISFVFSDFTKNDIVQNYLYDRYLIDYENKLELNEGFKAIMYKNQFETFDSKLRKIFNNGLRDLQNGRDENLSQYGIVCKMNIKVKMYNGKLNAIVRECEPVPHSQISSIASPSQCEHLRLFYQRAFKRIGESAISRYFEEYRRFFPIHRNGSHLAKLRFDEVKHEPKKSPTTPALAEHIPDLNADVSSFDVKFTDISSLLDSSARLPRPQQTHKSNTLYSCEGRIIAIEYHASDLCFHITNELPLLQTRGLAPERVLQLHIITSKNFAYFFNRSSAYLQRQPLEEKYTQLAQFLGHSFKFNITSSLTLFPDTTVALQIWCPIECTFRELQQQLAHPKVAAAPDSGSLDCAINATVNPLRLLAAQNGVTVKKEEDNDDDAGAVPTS

Cdc13 WT [3] = biological target: T2, Cdc13 WT (Saccharomyces cerevisiae, UniProt P32797 1-924); experiment: competition EMSA (DDE assay); EC50 for displacing 2 nM prebound IR800-Tel30G; 3.75 nM dimer; 30 C; value introduced 'as reported (9)', assay also run here; 25 mM HEPES pH 8.0, 50 mM NaOAc, 150 mM NaCl, 7.5 mM MgCl2 (1x DNA-binding buffer); DDE incubation 30 C, 8% native gel; mass photometry at room temperature after 30 C incubation; BLI buffer details not in material; conditions: protein: recombinant; chain copies: 2; label: 5' IRDye700
T2 sequence: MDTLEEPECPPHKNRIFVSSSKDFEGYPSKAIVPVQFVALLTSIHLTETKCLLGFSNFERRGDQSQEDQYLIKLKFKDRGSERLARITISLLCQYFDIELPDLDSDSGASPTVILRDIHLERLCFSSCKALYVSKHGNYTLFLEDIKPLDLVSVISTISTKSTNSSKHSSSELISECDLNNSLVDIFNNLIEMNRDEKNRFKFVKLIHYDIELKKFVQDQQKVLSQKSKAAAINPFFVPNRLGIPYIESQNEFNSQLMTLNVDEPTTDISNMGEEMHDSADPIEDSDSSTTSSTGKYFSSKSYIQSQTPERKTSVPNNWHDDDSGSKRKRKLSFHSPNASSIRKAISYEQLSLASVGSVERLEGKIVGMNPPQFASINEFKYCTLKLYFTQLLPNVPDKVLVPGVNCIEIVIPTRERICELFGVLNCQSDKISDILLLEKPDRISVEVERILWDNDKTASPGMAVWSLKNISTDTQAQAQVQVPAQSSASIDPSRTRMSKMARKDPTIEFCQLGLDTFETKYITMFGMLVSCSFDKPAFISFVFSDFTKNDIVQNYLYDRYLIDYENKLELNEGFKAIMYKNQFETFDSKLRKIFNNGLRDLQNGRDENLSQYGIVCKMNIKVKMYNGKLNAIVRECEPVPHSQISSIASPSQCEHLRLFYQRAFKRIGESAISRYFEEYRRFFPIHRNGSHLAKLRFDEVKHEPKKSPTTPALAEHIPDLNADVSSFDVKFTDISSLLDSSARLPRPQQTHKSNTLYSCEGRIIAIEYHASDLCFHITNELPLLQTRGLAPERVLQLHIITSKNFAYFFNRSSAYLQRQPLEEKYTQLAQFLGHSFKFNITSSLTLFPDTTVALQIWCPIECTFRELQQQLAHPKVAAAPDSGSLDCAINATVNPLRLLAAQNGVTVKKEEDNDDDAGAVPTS

Cdc13 WT [4] = biological target: T2, Cdc13 WT; experiment: mass photometry; one and two dimers per ssDNA; binding buffer; 25 mM HEPES pH 8.0, 50 mM NaOAc, 150 mM NaCl, 7.5 mM MgCl2 (1x DNA-binding buffer); DDE incubation 30 C, 8% native gel; mass photometry at room temperature after 30 C incubation; BLI buffer details not in material; conditions: protein: recombinant; chain copies: 2
Cdc13-L91R [5] = biological target: T1, Cdc13-L91R; experiment: mass photometry; small population with two monomers per ssDNA; binding buffer; 25 mM HEPES pH 8.0, 50 mM NaOAc, 150 mM NaCl, 7.5 mM MgCl2 (1x DNA-binding buffer); DDE incubation 30 C, 8% native gel; mass photometry at room temperature after 30 C incubation; BLI buffer details not in material; conditions: protein: recombinant

B1: Cdc13 (wild type, recombinant) (natural protein, S. cerevisiae, UniProt P32797 1-924, looked up)
chain: MDTLEEPECPPHKNRIFVSSSKDFEGYPSKAIVPVQFVALLTSIHLTETKCLLGFSNFERRGDQSQEDQYLIKLKFKDRGSERLARITISLLCQYFDIELPDLDSDSGASPTVILRDIHLERLCFSSCKALYVSKHGNYTLFLEDIKPLDLVSVISTISTKSTNSSKHSSSELISECDLNNSLVDIFNNLIEMNRDEKNRFKFVKLIHYDIELKKFVQDQQKVLSQKSKAAAINPFFVPNRLGIPYIESQNEFNSQLMTLNVDEPTTDISNMGEEMHDSADPIEDSDSSTTSSTGKYFSSKSYIQSQTPERKTSVPNNWHDDDSGSKRKRKLSFHSPNASSIRKAISYEQLSLASVGSVERLEGKIVGMNPPQFASINEFKYCTLKLYFTQLLPNVPDKVLVPGVNCIEIVIPTRERICELFGVLNCQSDKISDILLLEKPDRISVEVERILWDNDKTASPGMAVWSLKNISTDTQAQAQVQVPAQSSASIDPSRTRMSKMARKDPTIEFCQLGLDTFETKYITMFGMLVSCSFDKPAFISFVFSDFTKNDIVQNYLYDRYLIDYENKLELNEGFKAIMYKNQFETFDSKLRKIFNNGLRDLQNGRDENLSQYGIVCKMNIKVKMYNGKLNAIVRECEPVPHSQISSIASPSQCEHLRLFYQRAFKRIGESAISRYFEEYRRFFPIHRNGSHLAKLRFDEVKHEPKKSPTTPALAEHIPDLNADVSSFDVKFTDISSLLDSSARLPRPQQTHKSNTLYSCEGRIIAIEYHASDLCFHITNELPLLQTRGLAPERVLQLHIITSKNFAYFFNRSSAYLQRQPLEEKYTQLAQFLGHSFKFNITSSLTLFPDTTVALQIWCPIECTFRELQQQLAHPKVAAAPDSGSLDCAINATVNPLRLLAAQNGVTVKKEEDNDDDAGAVPTS
notes: called full-length WT Cdc13 in the text; The vector encodes a 5'-SUMO-His6 tag and a 3'-FLAG tag for purification; The monomer mass seen was ~105 kDa; also called WT Cdc13
[1]
  stoichiometry N: 2

B2: IR700-Tel30G (ssDNA)
DNA: CGCCATGCTGATCCGTGTGGTGTGTGTGGG
Cdc13-L91R [2]
  IC50: 31.6 nM
Cdc13 WT [3]
  IC50: 0.89 nM

B3: Tel50G (ssDNA)
DNA: GTGTGGGTGTGGTGTGGGTGTGGTGTGGGTGTGTGGGTGTGGTGTGGGTG
Cdc13 WT [4]
  binding result: binds
Cdc13-L91R [5]
  binding result: binds
